Assays:
CXCL12WT dimerization = biological target: T1, CXCL12WT dimerization (Homo sapiens, UniProt P48061); test: Intrinsic tryptophan fluorescence polarization assay of CXCL12WT dimerization; assay type: binding; conditions: for ΔGdimer: 298 K
T1 construct: made in house
Procedure: Fluorescence polarization assay. Fluorescence polarization (FP) assays were performed on a PTI spectrofluorometer equipped with automated polarizers, using a time base polarization method provided by the program Felix32. […] Experiments were performed in duplicate and the reported dimerization Kd values reflect the average of both experiments.

CXCR4(Y12A) = biological target: T2, CXCR4(Y12A) (Homo sapiens, UniProt P61073, Y12A); test: Calcium flux in CHO-K1 cells, FLAG-tagged CXCR4(Y12A); assay type: cell-based; conditions: relative to wildtype CXCR4
T2 construct: expressed in transfected cells; host or cells: CHO-K1 stably expressing Galpha15 (transient)
Procedure: (§1) Cell culture. Chinese hamster ovary K1 (CHO-K1) cells, stably transfected with the Gα15 gene in pcDNA3.1+, were cultured in a 1:1 mixture of Dulbecco's modified Eagle medium (DMEM) with Glutamax (Gibco):F12 nutrient mixture (Gibco) supplemented with 10% (w/v) fetal bovine serum (FBS) (Gibco). Stable expression of the Gα15 transgene was maintained by further supplementing the growth medium with 700 μg ml^−1 geneticin (Gibco).
(§2) Transfections. For transient transfections with the Flag-CXCR4 WT and N-terminally mutated constructs, the CHO-K1 Gα15 stable cells were lifted using 0.25% (v/v) trypsin-EDTA (Gibco), and 2×10^6 cells were re-plated onto 10 cm culture dishes. […] The cells were transfected 24 hours later using the Mirus TransIT-CHO Transfection Kit according to the manufacturers protocol, with the following exceptions: the amount of CHO transfection reagent was scaled up to 4 μl μg^−1 of DNA in the transfection mixtures, and the amount of CHO mojo reagent was scaled up to 1 μl μg^−1 of DNA in the mixtures. […]
(§3) Calcium flux. […] Fluorescence was measured at 310 K using a FlexStation2 Microplate Reader with excitation and emission wavelengths at 485 nm and 515 nm, respectively. […] CXCR4 variants with EC50 or maximum calcium response values more than three standard deviations from the mean CXCR4WT quantities were deemed significant.

CXCR4 (Y7A, Y12A, Y21A) = biological target: T3, CXCR4 (Y7A, Y12A, Y21A) (Homo sapiens, UniProt P61073, Y12A/Y21A/Y7A); test: Calcium flux in CHO-K1 cells, FLAG-tagged CXCR4 with Y7A, Y12A and Y21A; assay type: cell-based
T3 construct: expressed in transfected cells; host or cells: CHO-K1 stably expressing Galpha15 (transient)
Procedure: as §1, §2, §3

CXCR4 = biological target: T4, CXCR4 (Homo sapiens, UniProt P61073); test: Radioligand displacement of 125I-CXCL12 from CXCR4 membrane preparations; assay type: binding; conditions: relative to CXCL12WT
T4 construct: purchased Millipore
Procedure: Radioligand displacement. Commercial membrane preparations of cells stably expressing CXCR4 or CXCR7 were purchased (Millipore). Five micrograms of protein per point was incubated for 90 min on ice in binding buffer with 0.03 nM of […] as a tracer and increasing concentrations of competitor in a final 40 μL volume. Bound radioactivity was separated from free ligand by filtration, and receptor-bound radioactivity was quantified by gamma-radiation counting (Perkin-ECXCL121er Life and Analytical Sciences). Isolated membrane binding experiments were carried out in duplicate.

T1 sequence (P48061 22-89): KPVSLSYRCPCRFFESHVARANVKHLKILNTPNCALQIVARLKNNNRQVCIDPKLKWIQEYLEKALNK
T3 sequence (P61073 whole entry Y7A/Y12A/Y21A): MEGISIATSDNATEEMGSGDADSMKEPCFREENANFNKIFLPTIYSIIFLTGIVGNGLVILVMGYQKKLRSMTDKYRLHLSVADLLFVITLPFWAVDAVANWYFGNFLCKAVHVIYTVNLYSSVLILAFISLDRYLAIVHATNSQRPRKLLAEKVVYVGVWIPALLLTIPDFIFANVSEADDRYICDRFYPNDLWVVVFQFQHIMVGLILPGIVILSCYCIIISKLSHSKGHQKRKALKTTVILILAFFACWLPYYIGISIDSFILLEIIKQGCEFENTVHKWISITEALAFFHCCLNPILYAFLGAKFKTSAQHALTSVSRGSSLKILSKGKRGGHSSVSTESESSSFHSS
T4 sequence (P61073 whole entry): as the sequence (P61073 whole entry Y7A/Y12A/Y21A) above, with A7Y, A12Y, A21Y counted along it
T2 sequence (P61073 whole entry Y12A): as the sequence (P61073 whole entry Y7A/Y12A/Y21A) above, with A7Y, A21Y counted along it

| Substance | ΔGdimer (CXCL12WT dimerization; pathway 1: dimerization after sTyr21 sulfopeptide binding) [kcal mol^−] | ΔGdimer (CXCL12WT dimerization; pathway 2: dimerization before sulfopeptide binding) [kcal mol^−] | Kd (CXCL12WT dimerization; read-out: Kd for CXCL12WT dimerization, in the presence of 50 mM sulfotyrosine) [mM] | reduction of potency (calcium response) (CXCR4(Y12A)) [fold] | efficacy (maximum calcium response) (CXCR4 (Y7A, Y12A, Y21A)) | potency (calcium response) (CXCR4 (Y7A, Y12A, Y21A); relative to CXCR4(Y21A)) | recognition of the full-length receptor in comparison to CXCL12WT (CXCR4) |
| --- | --- | --- | --- | --- | --- | --- | --- |
| CXCL12WT: wild type CXCL12 (stromal cell-derived factor-1/SDF-1), SEQ ID NO:1 | −3.5 | −2.5 | 9.3 ± 1.8 | 3 | ~20 % of the wildtype receptor | did not further diminish the potency relative to CXCR4(Y21A) |  |
| CXCL122: constitutively dimeric variant of CXCL12 containing L36C/A65C mutations |  |  |  |  |  |  | six-times weaker |
